Values joined by “and” are separate entries in the source; they are usually repeats but may differ in a detail not shown here. Equal entries are not always repeated.
Molecular target: CdiA-CT^EC536_H178A (catalytically inactive C-terminal toxin domain of CdiA from uropathogenic E. coli 536) (uropathogenic Escherichia coli 536)
Assay: cryo-EM structure

B1: O-acetylserine sulfhydrylase A (CysK) (enzyme)
chain: MSKIFEDNSLTIGHTPLVRLNRIGNGRILAKVESRNPSFSVKCRIGANMIWDAEKRGVLKPGVELVEPTSGNTGIALAYVAAARGYKLTLTMPETMSIERRKLLKALGANLVLTEGAKGMKGAIQKAEEIVASNPEKYLLLQQFSNPANPEIHEKTTGPEIWEDTDGQVDVFIAGVGTGGTLTGVSRYIKGTKGKTDLISVAVEPTDSPVIAQALAGEEIKPGPHKIQGIGAGFIPANLDLKLVDKVIGITNEEAISTARRLMEEEGILAGISSGAAVAAALKLQEDESFTNKNIVVILPSSGERYLSTALFADLFTEKELQQ
modifications: PLP (N'-pyridoxyl-lysine-5'-monophosphate); position not given
For B1, the stoichiometry N (CysK per CdiA-CT) was 2 and 1.
